Consider 64 variants from the RNAGym collection of RNA variant scans (doi:10.7554/elife.80360).

The labels stand for the following.
B1: HDV Ribozyme (parent)
chain: GGCCGGCAUGGUCCCAGCCUCCUCGCUGGCGCCGGCUGGGCAACAUUCCGAGGGGACCGUCCCCUCGGUAAUGGCGAAUGGGACCCA

The series covers variants of B1. Kind of series: self-cleavage, relative activity (ratio to wild type); higher = more cleavage; co-transcriptional.
Regarding GGCCGGCAUGGUCCCAGCCUCCUCGCUGACGCCGGCUGGGCAACAUUCCGAGGGGACCGUCCCCUCGGUAAUGGCGAAUGGUACCCA, the self-cleavage is 0.0911. As for GGCCGGCAUGGUCCCAGCCUCCUCGCUGACGCCGGCUUGGCAACAUUCCGAGGGGACCGUCCCCUCGGUAAUGGCGAAUGGGACCCA, the figure is 0.113; as for GGCCGGCAUGGUCCCAGCCUCCUCGCUGACGCCGGCUGGGCAACAUUCCGAGGGGACCGUCCUCUCGGUAAUGGCGAAUGGGACCCA, 0.226. As for GGCCGGCAUGGUCCCAGCCUCCUCGCUGACGCCGGCUGGGCAACAUUCCGAGGGGACCGUCCGCUCGGUAAUGGCGAAUGGGACCCA, the self-cleavage worked out at 0.128.

Consider GGCCGGCAUGGUCCCAGCCUCCUCGCUGCCGCCGGCUGGGCGACAUUCCGAGGGGACCGUCCCCUCGGUAAUGGCGAAUGGGACCCA, for which the self-cleavage worked out at 0. Turning to GGCCGGCAUGGUCCCAGCCUCCUCGCUGCCGCCGGCUGGGCUACAUUCCGAGGGGACCGUCCCCUCGGUAAUGGCGAAUGGGACCCA, the self-cleavage is 0.0314. Next, GGCCGGCAUGGUCCCAGCCUCCUCGCUGACGCCGGCUGGGCAAGAUUCCGAGGGGACCGUCCCCUCGGUAAUGGCGAAUGGGACCCA: 0.151; GGCCGGCAUGGUCCCAGCCUCCUCGCUGACGCCGGCUGGGCAAAAUUCCGAGGGGACCGUCCCCUCGGUAAUGGCGAAUGGGACCCA: 0.198; GGCCGGCAUGGUCCCAGCCUCCUCGCUGACGCCGGCUGGGCAACACUCCGAGGGGACCGUCCCCUCGGUAAUGGCGAAUGGGACCCA: 0.138. Next, GGCCGGCAUGGUCCCAGCCUCCUCGCUGACGCCGGCUGGGCAACAGUCCGAGGGGACCGUCCCCUCGGUAAUGGCGAAUGGGACCCA: 0.166; GGCCGGCAUGGUCCCAGCCUCCUCGCUGACGCCGGCAGGGCAACAUUCCGAGGGGACCGUCCCCUCGGUAAUGGCGAAUGGGACCCA: 0.136; GGCCGGCAUGGUCCCAGCCUCCUCGCUGACGCCGGCUGGGCAACAUUCCGAGGGAACCGUCCCCUCGGUAAUGGCGAAUGGGACCCA: 0.208. Turning to GGCCGGCAUGGUCCCAGCCUCCUCGCUGACGCCGGCUGGGCAACAUUCCGAGGGUACCGUCCCCUCGGUAAUGGCGAAUGGGACCCA, the self-cleavage came to 0.168. Next, GGCCGGCAUGGUCCCAGCCUCCUCGCUGACGCCGGCUGGGCAACAUUCCGAGGGGAACGUCCCCUCGGUAAUGGCGAAUGGGACCCA: 0.282; GGCCGGCAUGGUCCCAGCCUCCUCGCUGACGCCGGCUGGGCAACAUUCCGAGGGGAUCGUCCCCUCGGUAAUGGCGAAUGGGACCCA: 0.234; GGCCGGCAUGGUCCCAGCCUCCUCGCUGACGCCGGCUGGGCAACAUUCCGAGGGGACCGUCCCUUCGGUAAUGGCGAAUGGGACCCA: 0.144. For the variant GGCCGGCAUGGUCCCAGCCUCCUCGCUGACGCCGGCUGGGCAACAUUCCGAGGGGACCGUCCCCUCAGUAAUGGCGAAUGGGACCCA, the self-cleavage was 0.0791. Turning to GGCCGGCAUGGUCCCAGCCUCCUCGCUGACGCCGGCUGGGCAACAUUCCGAGGGGACCGUCCCCUCUGUAAUGGCGAAUGGGACCCA, the self-cleavage is 0.231. For the variant GGCCGGCAUGGUCCCAGCCUCCUCGCUGACGCCGGCUGGGCAACAUUCCGAGGGGACCGUCCCCUCCGUAAUGGCGAAUGGGACCCA, the self-cleavage was determined as 0.237.

In the case of GGCCGGCAUGGUCCCAGCCUCCUCGCUGACGCCGGCUGGACAACAUUCCGAGGGGACCGUCCCCUCGGUAAUGGCGAAUGGGACCCA, the self-cleavage is 0.237. With GGCCGGCAUGGUCCCAGCCUCCUCGCUGACGCCGGCUGGGCAACAUUCCGAGGGGACCGUCCCCUCGGUAAUGGCGAAUGGGACUCA, the self-cleavage was determined as 0.0978. Next, GGCCGGCAUGGUCCCAGCCUCCUCGCUGCCGCCGGCUGGGCAACGUUCCGAGGGGACCGUCCCCUCGGUAAUGGCGAAUGGGACCCA: 0. Regarding GGCCGGCAUGGUCCCAGCCUCCUCGCUGCCGCCGGCUGGGCAACCUUCCGAGGGGACCGUCCCCUCGGUAAUGGCGAAUGGGACCCA, the self-cleavage is 0.111.

Turning to GGCCGGCAUGGUCCCAGCCUCCUCGCUGACGCCGGCUGGGCAACAUUCCGAGGGGACCGUCCCCUCGGUAAUGGCGAAUGGGAUCCA, the self-cleavage was 0.133. Take GGCCGGCAUGGUCCCAGCCUCCUCGCUGACGCCGGCUGGGCAACAUUCCGAGGGGACCGUCCCCUCGGUAAUGGCGAAUGGGAACCA: the self-cleavage is 0.245. With GGCCGGCAUGGUCCCAGCCUCCUCGCUGACGCCGGCUGGGCAACAUUCCGAGGGGACCGUCCCCUCGGUAAUGUCGAAUGGGACCCA, the self-cleavage came out at 0.073.

In the case of GGCCGGCAUGGUCCCAGCCUCCUCGCUGACGCCGGCUGGGCAACAUUCCGAGGGGACCGUACCCUCGGUAAUGGCGAAUGGGACCCA, the self-cleavage came to 0.177.

GGCCGGCAUGGUCCCAGCCUCCUCGCUGACGCCGGCUGGGGAACAUUCCGAGGGGACCGUCCCCUCGGUAAUGGCGAAUGGGACCCA: the self-cleavage is 0.0339. As for GGCCGGCAUGGUCCCAGCCUCCUCGCUGACGCCGGCUGGGCAACAUUCCGAGGGGACCGUCCCCUCGAUAAUGGCGAAUGGGACCCA, the figure is 0.107. Consider GGCCGGCAUGGUCCCAGCCUCCUCGCUGACGCCGGCUGGGCAACAUUCCGAGGGGACCGUCCCCUCGUUAAUGGCGAAUGGGACCCA, for which the self-cleavage was 0.0841. Next, GGCCGGCAUGGUCCCAGCCUCCUCGCUGACGCCGGCUGGGCAACAUUCCGAGGGGACCGUCCCCUCGCUAAUGGCGAAUGGGACCCA: 0.111. As for GGCCGGCAUGGUCCCAGCCUCCUCGCUGACGCCGGCUGGGCAACAUUUCGAGGGGACCGUCCCCUCGGUAAUGGCGAAUGGGACCCA, the figure is 0.0656; as for GGCCGGCAUGGUCCCAGCCUCCUCGCUGACGCCGGCUGGGCAACAUUGCGAGGGGACCGUCCCCUCGGUAAUGGCGAAUGGGACCCA, 0.0875; as for GGCCGGCAUGGUCCCAGCCUCCUCGCUGACGCCGGCUGGGCAACAUUACGAGGGGACCGUCCCCUCGGUAAUGGCGAAUGGGACCCA, 0.262. With GGCCGGCAUGGUCCCAGCCUCCUCGCUGCCGCCGGCUGGGCAACAUUCCGAGGGGCCCGUCCCCUCGGUAAUGGCGAAUGGGACCCA, the self-cleavage is 0.237.

On to GGCCGGCAUGGUCCCAGCCUCCUCGCUGACGCCGGCUGGGCAACAUUCCGAGGGGACCGUCCCCUCGGUAAUGGCGAAUGUGACCCA, for which the self-cleavage turned out to be 0.125. Take GGCCGGCAUGGUCCCAGCCUCCUCGCUGACGCCGGCUGGGCAACAUUCCGAGGGGACCGUCCCCUCGGUAAAGGCGAAUGGGACCCA: the self-cleavage came out at 0.122. As for GGCCGGCAUGGUCCCAGCCUCCUCGCUGACGCCGGCUGGGCAACAUUCCGAGGGGACCGUCCCCUCGGUAAUGGUGAAUGGGACCCA, the self-cleavage stood at 0.0339. Next, GGCCGGCAUGGUCCCAGCCUCCUCGCUGCCGCCGGCUGGGCAACAUUCCGGGGGGACCGUCCCCUCGGUAAUGGCGAAUGGGACCCA: 0; GGCCGGCAUGGUCCCAGCCUCCUCGCUGACGCCGGCUGGGCAACAUUCAGAGGGGACCGUCCCCUCGGUAAUGGCGAAUGGGACCCA: 0.136. For GGCCGGCAUGGUCCCAGCCUCCUCGCUGACGCCGGCUGGGCAACAUUCCGAGGGGACCGUCCCCUCGGUAAUGGCGAAUGGGACCGA, the self-cleavage worked out at 0.138. In the case of GGCCGGCAUGGUCCCAGCCUCCUCGCUGACGCCGGCUGGGCAACAUUCCGAGGGGACCGUCCCCUCGGUAAUGGCGAAUGGGACCUA, the self-cleavage was determined as 0.0314. With GGCCGGCAUGGUCCCAGCCUCCUCGCUGACGCCGGCUGGGCAACAUUCCGAGGGGACCGCCCCCUCGGUAAUGGCGAAUGGGACCCA, the self-cleavage was determined as 0.0997. As for GGCCGGCAUGGUCCCAGCCUCCUCGCUGACGCCGGCUGGGCAACAUUCCGAGGGGACCGGCCCCUCGGUAAUGGCGAAUGGGACCCA, the figure is 0.0923; as for GGCCGGCAUGGUCCCAGCCUCCUCGCUGCCGCCGGCUGGGCAUCAUUCCGAGGGGACCGUCCCCUCGGUAAUGGCGAAUGGGACCCA, 0.0519. As for GGCCGGCAUGGUCCCAGCCUCCUCGCUGACGCCGGCUGCGCAACAUUCCGAGGGGACCGUCCCCUCGGUAAUGGCGAAUGGGACCCA, the self-cleavage is 0.0941.

For the variant GGCCGGCAUGGUCCCAGCCUCCUCGCUGACGCCGGCUGAGCAACAUUCCGAGGGGACCGUCCCCUCGGUAAUGGCGAAUGGGACCCA, the self-cleavage is 0.0863. With GGCCGGCAUGGUCCCAGCCUCCUCGCUGACGCCGGCUGUGCAACAUUCCGAGGGGACCGUCCCCUCGGUAAUGGCGAAUGGGACCCA, the self-cleavage came to 0.0432. For GGCCGGCAUGGUCCCAGCCUCCUCGCUGACGCCGGCUGGGCAACAUUCCGAGGGGACCGUCCCCACGGUAAUGGCGAAUGGGACCCA, the self-cleavage was 0.0627. As for GGCCGGCAUGGUCCCAGCCUCCUCGCUGACGCCGGCUGGGCAACAUUCCGAGGGGACCGUCCCCCCGGUAAUGGCGAAUGGGACCCA, the self-cleavage is 0.17. On to GGCCGGCAUGGUCCCAGCCUCCUCGCUGACGCCGGCUGGGCAACAUUCCGAGGGGACCGUCCCCUCGGUAAUGGCGAAUCGGACCCA, for which the self-cleavage came out at 0.145. Turning to GGCCGGCAUGGUCCCAGCCUCCUCGCUGACGCCGGCUGGGCAACAUUCCGAGGGGACCGUCCCCUCGGUAAUGGCGAAUAGGACCCA, the self-cleavage stood at 0.163.

Regarding GGCCGGCAUGGUCCCAGCCUCCUCGCUGACGCCGGCUGGGCAACAUUCCGAAGGGACCGUCCCCUCGGUAAUGGCGAAUGGGACCCA, the self-cleavage amounted to 0.0554. Regarding GGCCGGCAUGGUCCCAGCCUCCUCGCUGACGCCGGCUGGGCAACAUUCCGAGGGGACCGUCCCCUCGGUAAUGGCCAAUGGGACCCA, the self-cleavage turned out to be 0.256.

For GGCCGGCAUGGUCCCAGCCUCCUCGCUGACGCCGGCUGGGCAACAUACCGAGGGGACCGUCCCCUCGGUAAUGGCGAAUGGGACCCA, the self-cleavage came out at 0.148. For GGCCGGCAUGGUCCCAGCCUCCUCGCUGACGCCGGCUGGGCAACAUUCCGAGGCGACCGUCCCCUCGGUAAUGGCGAAUGGGACCCA, the self-cleavage was 0.113. For GGCCGGCAUGGUCCCAGCCUCCUCGCUGACGCCGGCUGGGCAACAUUCCGAGGAGACCGUCCCCUCGGUAAUGGCGAAUGGGACCCA, the self-cleavage was 0.0989.

For the variant GGCCGGCAUGGUCCCAGCCUCCUCGCUGACGCCGUCUGGGCAACAUUCCGAGGGGACCGUCCCCUCGGUAAUGGCGAAUGGGACCCA, the self-cleavage was 0.101. With GGCCGGCAUGGUCCCAGCCUCCUCGCUGACGCCGCCUGGGCAACAUUCCGAGGGGACCGUCCCCUCGGUAAUGGCGAAUGGGACCCA, the self-cleavage is 0.149. On to GGCCGGCAUGGUCCCAGCCUCCUCGCUGACGCCGGCUGGGCAACAUUCCGAGGGGACCGUCCCCUUGGUAAUGGCGAAUGGGACCCA, for which the self-cleavage came to 0.114. Turning to GGCCGGCAUGGUCCCAGCCUCCUCGCUGACGCCGGCUGGGCAACAUUCCGAGGGGACGGUCCCCUCGGUAAUGGCGAAUGGGACCCA, the self-cleavage came to 0.271. As to GGCCGGCAUGGUCCCAGCCUCCUCGCUGACGCCGGCUGGGCAACAUUCCGAGGGGACUGUCCCCUCGGUAAUGGCGAAUGGGACCCA, the self-cleavage was determined as 0.197. Take GGCCGGCAUGGUCCCAGCCUCCUCGCUGACGCCGGCUGGGCAACAUUCCGAGUGGACCGUCCCCUCGGUAAUGGCGAAUGGGACCCA: the self-cleavage is 0.114. GGCCGGCAUGGUCCCAGCCUCCUCGCUGACGCCGGCUGGGCAACAUUCCGAGGGGACCGUCACCUCGGUAAUGGCGAAUGGGACCCA: the self-cleavage was 0.391.
